We go through three molecules from publication doi:10.1101/2020.08.27.270991 (bioRxiv, 2020).

As usually defined, the Kd is the concentration at which binding is half-saturated. Broadly, the stoichiometry N is the number of molecules, sites or subunits per partner or assembly.

Numbering of substitutions follows the chain as printed. Names and notes keep the numbering of the source.

Data set [1] deals with full-length Thermus thermophilus MgtE (Thermus thermophilus, UniProt Q5SMG8). In words: ITC. In general terms: In ITC the heat of successive injections is recorded.
The data set “cryo-EM structure” deals with the molecule itself. In words: cryo-EM structure.
The data set “cross-linking” deals with the molecule itself. In words: cross-linking.

B1: Fab antibody fragment Fab705 (Fab, V domains shown)
VH: EVKLQESGVELVKPGASVKISCKASGYSFTGYNMNWVKQSHGKSLEWIGNISPYYGTSIYNQNFKGKATLTVDRSSSTAYMQLNSLTSEDSAVYYCARGESFSNYEGYYAMDYWGQGTSVIVSS
VL: DVLMTQTPLSLPVSLGDQASISCRSSQSLVHSDGNTYLHWYLQKPGQSPKLLIYKVSNRFSGVPDRFSGSGSGTDFTLKISRVEAEDLGVYFCSQSTHVPWTFGGGTKLEIK
In data set [1], B1 came in with a Kd of 253 ± 71.1 nM.

B2: full-length Thermus thermophilus MgtE (natural protein, UniProt Q5SMG8 1-450, looked up)
chain: MEEKLAVSLQEALQEGDTRALREVLEEIHPQDLLALWDELKGEHRYVVLTLLPKAKAAEVLSHLSPEEQAEYLKTLPPWRLREILEELSLDDLADALQAVRKEDPAYFQRLKDLLDPRTRAEVEALARYEEDEAGGLMTPEYVAVREGMTVEEVLRFLRRAAPDAETIYYIYVVDEKGRLKGVLSLRDLIVADPRTRVAEIMNPKVVYVRTDTDQEEVARLMADYDFTVLPVVDEEGRLVGIVTVDDVLDVLEAEATEDIHKLGAVDVPDLVYSEAGPVALWLARVRWLVILILTGMVTSSILQGFESVLEAVTALAFYVPVLLGTGGNTGNQSATLIIRALATRDLDLRDWRRVFLKEMGVGLLLGLTLSFLLVGKVYWDGHPLLLPVVGVSLVLIVFFANLVGAMLPFLLRRLGVDPALVSNPLVATLSDVTGLLIYLSVARLLLEAV
In the case of B2, the “stoichiometry N” value in the data set “cryo-EM structure” was determined as 2.

B3: MgtE double cysteine mutant T336C/L421C (natural protein, Thermus thermophilus, UniProt Q5SMG8 1-450, looked up)
chain: B2 chain with T336C, L421C
As to B3, the binding result in “cross-linking” is reported as “binds”.
